Assay results from the supplement of paper PMC12042874.
± gives the uncertainty stated by the source.

Test: amyloid nucleation score (Sup35N fusion, yeast selection) (log enrichment); library NNK2; higher = more nucleation; inactive = no reads after selection
Procedure, shortened: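 Growth for 7 days at 30°C on medium lacking adenine and uracil followed a 24-hour induction with 100 μM copper sulfate of psi-negative yeast expressing peptides of 20 random codons fused to Sup35N. Input and output plasmid inserts were sequenced with Illumina, and sequences with under 100 input reads were excluded. Nucleation score is the DiMSum log enrichment of output over input reads, centred on the mode score of non-aggregating sequences.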

In order of rising amyloid nucleation score:
1. SWGFI  -2.19 ± 0.62
2. SYRNLDKTIRSDKLQVNLGI  -1.57 ± 1.1
3. SYILEFFHWIRSRLEYYGY  -1.5 ± 0.76
4. TRPRVKPWAMFRNIYD  -1.33 ± 0.44
5. TFKMSGINPTD  -1.19 ± 0.3
6. TAAGLFISNNHMNYFDAIAY  -1.09 ± 0.78
7. THEIFMHSYY  -0.913 ± 1.1
8. TMLTFG  -0.913 ± 0.76
9. SYGHDWVGKGKVGGIRLM  -0.904 ± 0.49
10. TFGTSFKYFMSWLIDRCCYL  -0.836 ± 1.1
11. TRAPGRDFVGEGEACALDET  -0.799 ± 0.54
12. TCLSRVPPS  -0.797 ± 0.61
13. TNTLMGPFWLSWSNVQPNRS  -0.787 ± 0.54
14. TGCVKGYSSRWWESFYGGTR  -0.762 ± 0.79
15. SYSDPETFISWVLVDWCLMS  -0.753 ± 0.55
16. TLLSASYGV  -0.742 ± 0.79
17. TGLTH  -0.737 ± 0.54
18. TQINEVLL  -0.722 ± 0.28
19. SVMIWIIASNIDILSVVFRL  -0.573 ± 1.1
20. SVSGIGWFGGEQHAWS  -0.531 ± 0.79
21. TRNSFRSSLWVLRGGCV  -0.523 ± 0.37
22. SYFYPCLRNLYLPLWWRSHS  -0.515 ± 0.38
23. SVVVDIKGVDWVVRVLVGKR  -0.484 ± 0.65
24. SVYDTKHLLNLLDSAVISNH  -0.481 ± 0.76
25. SYHFQDLW  -0.461 ± 0.25
26. TLGMYFFVSMLSLLVSVNGF  -0.427 ± 1.1
27. SVFYHLYSHWIFIVCTNTRR  -0.414 ± 0.43
28. TGRHKVTDLRIWILWSYTGA  -0.398 ± 0.63
29. SYDVRVAKINSPLGG  -0.397 ± 0.79
30. THFPLHV  -0.388 ± 0.37
31. TFDVTRI  -0.311 ± 0.33
32. TLMDLNNHPTYGYLLVPTVD  -0.307 ± 0.79
33. SWITPMRHLFSNHSLGLNAY  -0.298 ± 0.43
34. TNISMLNDVGEGCFGERSLV  -0.291 ± 0.54
35. TMSQYLGNRCTTNGYSFGVS  -0.272 ± 1.1
36. SVAFILVPNEWLVKRAASSG  -0.264 ± 0.45
37. SVRFPITVMFRFSRWFTETY  -0.264 ± 0.37
38. TGRGAHFHRI  -0.24 ± 0.42
39. SYFSVKHDRR  -0.228 ± 0.35
40. SWTHRAGYIKRMSE  -0.212 ± 0.55
41. SWCFVNGWWLYESAWEVMDS  -0.199 ± 1.1
42. TKTILRILSQFIYDSPLLEM  -0.19 ± 1.1
43. TRLVWIFLSPM  -0.169 ± 0.25
44. SVKIWCFIWEFPCFMLFRAL  -0.168 ± 1.1
45. TLCWLYLWVYRCKDYEELTC  -0.167 ± 0.63
46. SVVFLRLGYGKLRV  -0.159 ± 1
47. TLGGSSTFRY  -0.152 ± 0.45
48. SYNTHQLSRSPF  -0.131 ± 0.23
49. THSRRLRLNAKMCLHFLWYR  -0.115 ± 0.2
50. TILDIVLIIPAKVVHKEERR  -0.093 ± 0.41
51. TASPSILTSKVTRYNLTVGC  -0.072 ± 0.5
52. TIDWTMSHCMI  -0.055 ± 0.56
53. TQLSV  -0.046 ± 1
54. TLGVSRNLALSTEARTLRPY  -0.041 ± 0.42
55. TISLDM  -0.033 ± 0.25
56. TRGCFAVSSKYMLSYVGLNR  -0.021 ± 0.21
57. TASFK  -0.014 ± 0.76
58. TGRLSIVAKNYWGHSVRAFS  0.001 ± 0.76
59. TPSRFWPMLFSVNLWLRGWL  0.017 ± 0.62
60. TIRRVRSALQQHM  0.041 ± 0.49
61. TLLFHTRSYVYICVLVWKQH  0.049 ± 0.8
62. TFYYTAECWAWRNMQESSHT  0.054 ± 0.32
63. TSANLLLYRVLKSFLARQHQ  0.062 ± 0.46
64. TLFIMC  0.074 ± 0.54
65. SYFWRYFM  0.087 ± 0.79
66. SYGLRSC  0.174 ± 0.63
67. SVLVVPVT  0.182 ± 0.79
68. SWSRYGCGVYSDVGVTLLQF  0.201 ± 0.63
69. TLFLRMVSLHFKSVVLWNWF  0.213 ± 0.8
70. THNLAEGQGKDCVQSLDRMG  0.22 ± 0.38
71. SWTCHGGNLYS  0.222 ± 0.8
72. SVLIAQLDAAYGISVVRSPG  0.264 ± 0.18
73. TLYFYFRLSW  0.276 ± 0.8
74. TCFHR  0.285 ± 0.55
75. SWTCFTLVVRRTAGYWVWSA  0.331 ± 0.33
76. TRVFTSWFVV  0.342 ± 0.65
77. TCAGIV  0.408 ± 0.41
78. TNWGNAVSSAMRLGSL  0.438 ± 0.28
79. TPSECRCWEEFHGWTHLLRL  0.461 ± 0.48
80. TPVSCFTCRQCLVTGLHTLR  0.466 ± 0.26
81. TPTWESNQVL  0.502 ± 0.65
82. TGNTFIPSLFICRIEGSTSA  0.506 ± 0.44
83. TDQDT  0.516 ± 0.32
84. SVCELKW  0.53 ± 0.38
85. SVVEEKIGEFTWSWDTDSAN  0.568 ± 0.66
86. STVELEQYGSSARADYLVWR  0.58 ± 0.64
87. TRVNNGSTVHNKMLTS  0.634 ± 0.74
88. TKRAIDWA  0.669 ± 0.8
89. TLLWSRTMYVGIPSYRYGGA  0.676 ± 0.8
90. SYSYFLELVSYKFSVVFLSI  0.715 ± 0.58
91. SYCHCASGPFSLNPYSLLVC  0.716 ± 0.66
92. TRTQMW  0.739 ± 0.43
93. TEGRVDPLCDERAILMVFDV  0.768 ± 0.5
94. TQLIVMCHFVVHRRVKWRI  0.786 ± 0.3
95. TCRQSEATLLVLEYVRESCS  0.809 ± 0.3
96. TFGESSIVNNPYFLHESGHS  0.813 ± 0.48
97. TCSRDVFGWTVLGTGLPPLR  0.878 ± 0.32
98. TKATRINEGLLNLYALFGGK  0.974 ± 0.17
99. TEDDCGK  0.975 ± 0.17
100. TKRHE  0.987 ± 0.58
101. TLRSETMSDWYSRLHGFVFK  0.988 ± 0.52
102. TFTVKCTDGGSCF  1.01 ± 0.24
103. SVTRWEHAMAVPKKLLHSGR  1.05 ± 0.23
104. TGMQMFMVVWLGQLDRSDTI  1.07 ± 0.28
105. TLDVGLGAAQCVIGISGWYE  1.1 ± 0.15
106. TRALDPVSVSRISVRQQPLA  1.12 ± 0.2
107. TFDRCPNNSGNDMTNGPESW  1.21 ± 0.096
108. TPDVLGLRHYRLTIVTYH  1.22 ± 0.31
109. STVICSVYFDVVASFDIVYI  1.39 ± 0.24
110. TIRSCVNF  1.41 ± 0.1
111. TRRCIERNRNVLFFTFMCRL  1.41 ± 0.27
112. TKVQERLGHF  1.46 ± 0.58
113. TFFYMRFPGFLFSNSSNAW  1.47 ± 0.24
114. TRCKHDDVW  1.5 ± 0.33
115. TRSYQLLLVSLVAGNFVE  1.5 ± 0.27
116. SVSGTLFPGYCWGNGKAGHF  1.56 ± 0.091
117. SVGGETITRWKCIWMTRRTE  1.77 ± 0.16
118. SYYMISY  2.05 ± 0.12
119. TRAFLIIRYVKLDTNFVI  2.19 ± 0.064
120. SYHVVCFVYVLVTFLLWCSH  2.22 ± 0.14
121. TDLIINMSQNR  2.42 ± 0.1
122. TMYFWLMSLVWLLSVSFRAW  2.54 ± 0.1
123. STVFYMNLQGVFRTVSWV  2.8 ± 0.18
124. TFMAIRSLNSSASGWATGF  3.01 ± 0.049
125. TGHKFPLRGSMRVVLDFFSR  3.09 ± 0.089
126. TLFQFWKYLVSTTCIML  3.18 ± 0.11
127. SVNWSFRSMNIFH  3.45 ± 0.055
128. TFIAMSQALMTVYIGALLQW  3.57 ± 0.061
129. TIFFMGM  3.65 ± 0.07
130. TMRFLVGFCLTNWDNLNASC  3.67 ± 0.05
131. TPCIMWKLGLFFVDCCFGFP  4.1 ± 0.12
132. TPVYPRRSIVLICSISMLRK  4.12 ± 0.064
133. TFYRACALTLMRDQTDSWYC  4.35 ± 0.091
134. TGQSKDNQDSNMGVICLFYS  4.389 ± 0.04
135. TGELSAQHKASTYYCYCWLF  4.43 ± 0.076
136. SYVCRYITVPGFDTN  4.76 ± 0.08
137. TDYHMFYRLDCLPLTTTCPV  4.88 ± 0.087
138. TILVTKG  4.89 ± 0.11
139. SYVEHTMILDMRPTCHTLPH  5.08 ± 0.11
140. TISDTCHESRLDVMRNVPYM  5.091 ± 0.043
141. TLMFVKNFDVRCEWEASFTM  5.37 ± 0.077
142. TITHLSNACTYMVDIRSFTF  5.38 ± 0.068
143. TCVCDIYSSTVVSFLHSNRV  5.44 ± 0.1
144. TGFQLVNWSNIGLWNNLYGR  5.49 ± 0.065
145. SVDIKIFLQPAYFCNATAAV  6.435 ± 0.039
146. SVDRNNTYLYRLKYAFWAMG  6.644 ± 0.043
147. TNQGFLWVSPLILTRCGDRQ  6.68 ± 0.079
148. SYFEMAYEWYCMNWMGEVIK  9.197 ± 0.054
149. TGPIWLCYACAWTNTYTPAE  9.357 ± 0.055
150. TLVRSVQLCCGISAWNMEAR  11.43 ± 0.031

In the case of SVCVRT, the amyloid nucleation score is reported as “inactive”.
In the case of SVFGTLFDYGRRSTTFNGLK, the amyloid nucleation score is reported as “inactive”.
For SVFKMNEGFGNEHSNAPMRG, the amyloid nucleation score was “inactive”.
In the case of SVFYIYWRSWLFFRSLGLFI, the amyloid nucleation score is reported as “inactive”.
For SVYCSNNNTFDAFYVEWVFA, the amyloid nucleation score was “inactive”.
With SYDDVVILDFYDGIL the amyloid nucleation score was “inactive”.
For SYFMRDSTN, the amyloid nucleation score was “inactive”.
With SYLLSRYLRPKGYADNIVYA the amyloid nucleation score was “inactive”.
With TDITKVSGTFNHSMEPIWYT the amyloid nucleation score was “inactive”.
In the case of TETTVFILLFWLLVILGRVH, the amyloid nucleation score is reported as “inactive”.
For TFFNNWMALKYRNYQFIMSG, the amyloid nucleation score was “inactive”.
In the case of TGKFL, the amyloid nucleation score is reported as “inactive”.
In the case of TGPGSFFRRSGDTHLYSRDG, the amyloid nucleation score is reported as “inactive”.
With TKICMASHATVFALYVYCSL the amyloid nucleation score was “inactive”.
For TLASRTNF, the amyloid nucleation score was “inactive”.
With TLYYIVRHQICANFYRMYNG the amyloid nucleation score was “inactive”.
With TMFLYSNAEDFF the amyloid nucleation score was “inactive”.
For TNAIYRGVLGSMDQGT, the amyloid nucleation score was “inactive”.
With TNSALGSMVYELGRPLVWFF the amyloid nucleation score was “inactive”.
With TPGCF the amyloid nucleation score was “inactive”.
With TPNNYLYTSFVAY the amyloid nucleation score was “inactive”.
For TRLCRNLAASPGFLWTVYKS, the amyloid nucleation score was “inactive”.
In the case of TRYMFMVTKLPGPGGCSVNE, the amyloid nucleation score is reported as “inactive”.
